# Laboratory results reported in WO2006089678A2 (dated 2006).
# T1: Tat, excreted regulatory protein encoded by HIV-1 (HIV-1 IIIB, in infected Jurkat cells) (HIV-1 IIIB, UniProt P04610 1-86)
# T1 sequence: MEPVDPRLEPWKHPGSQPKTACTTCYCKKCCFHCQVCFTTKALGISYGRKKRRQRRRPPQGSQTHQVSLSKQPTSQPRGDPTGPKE
# What was measured:
# [1] = molecular target: T2, target epitope BSA conjugated peptide (HIV-1, conjugated to BSA); experiment: ELISA, BSA-conjugated peptide coated on plates, HRP rabbit anti-human IgG, luminescence
# T2 construct: also called peptide conjugated to BSA
# [2] = molecular target: T1, Tat, excreted regulatory protein …; experiment: cell-based or functional assay
binder,measurement,setting,value
"n-CoDeR ® anti-Tat antibody (antibody, V domains shown, Human IgG1 lambda, expressed in CHO cells; also called fully human recombinant IgG1 antibody from the n-CoDeR phage display library) VH: EVQLLESGGGLVQPGGSLRLSCAASGFTFDDYGMAWVRQAPGKGLEWVSGVSWNGSRTHYADSVKGRFTISRDNSKNTLYLQMNSLRAEDTAVYYCARGVAGHDYWGQGTLVTVSS VL: QSVLTQPPSASGTPGQRVTISCSGSRSNIGSHYVFWYQQLPGTAPKLLIYDNNKRPSGVPDRFSGSKSGTSASLAISGLRSEDEADYYCAAWDGSLSGHVVFGGGTKLTVLG",EC50,[1],0.7 nM
same,"IC50 of inhibition of HIV-1 replication, 1 % initially HIV-1 IIIB infected Jurkat cells, p24 ELISA",[2],0.05 µg/mL
same,"IC50 of inhibition of HIV-1 replication, 3 % initially HIV-1 IIIB infected Jurkat cells, p24 ELISA",[2],0.07 µg/mL
